# Source: patent US20260274955A1 (JANUX THERAPEUTICS, published 2026)
# Molecular target: Anti-CD28 Fab (SEQ ID NOs: 202, 203)
# Assay: phage binding ELISA on captured Fab;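 further: clonal phage supernatants added briefly to wells pre-incubated with CD28 antigen or with blocking buffer only, then washed, bound phage read by ELISA using HRP-coupled anti-M13 antibody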
# Description: (§1) Clonal phage were harvested as crude supernatants and screened via standard ELISAs. […] Prior to the addition of clonal phage, wells were incubated with blocking buffer and CD28 antigen or blocking buffer alone. Without washing or aspirating, clonal phage supernatants were then added to the wells and incubated for a short time. Wells were then washed followed by detection of bound phage using a horse radish conjugated anti-M13 antibody.
# Chain of Anti-CD28 Fab (SEQ ID NOs: 202, 203) (VH, as listed by the source, chain 1 of 2): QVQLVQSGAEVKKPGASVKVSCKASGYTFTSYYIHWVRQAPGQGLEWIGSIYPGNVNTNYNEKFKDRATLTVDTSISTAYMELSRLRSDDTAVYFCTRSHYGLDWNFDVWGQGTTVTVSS
# Chain of Anti-CD28 Fab (SEQ ID NOs: 202, 203) (VL, as listed by the source, chain 2 of 2): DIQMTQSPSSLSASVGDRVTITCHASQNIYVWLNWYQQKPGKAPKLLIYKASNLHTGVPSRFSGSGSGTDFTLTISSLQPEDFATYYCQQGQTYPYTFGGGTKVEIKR
row,Binder,Anti-CD28 Fab signal
1,YCEGHSQENIWKCL [Phage-32],1.41
2,YCAGHMPEYMAKCL [Phage-65],2.38
3,YCEGHEGIYFWKCL [Phage-27],2.07
4,YCDGHLPEYMAKCL [Phage-69],2.37
5,YCAGHLPQYMSKCL [Phage-72],2.37
6,YCDGHLPEYQEKCL [Phage-71],2.37
7,YCDGHSPEYMWKCL [Phage-49],2.44
8,YCDGHLPQYMAQCL [Phage-59],2.4
9,YCEGHSPQYMWKCL [Phage-142],2.22
10,YCEGHAPEYIRKCL [Phage-30],1.63
11,YCEGHLPEYMFKCL [Phage-58],2.4
12,YCDGHLDEYMAKCL [Phage-94],2.31
13,YCEGHLPQYMQKCL [Phage-60],2.39
14,YCDGHSPIYMWKCL [Phage-45],2.47
15,YCEGHLPQYMKKCL [Phage-144],2.22
16,YCEGHAPEYMLKCL [Phage-146],2.21
17,YCEGHAPEYIWKCL [Phage-31],1.63
18,YCAGHLPEYMDKCL [Phage-53],2.42
19,YCDGHLPEYLAKCL [Phage-64],2.38
20,YCDGHLPIYMSQCL [Phage-73],2.36
21,YCAGHAPEYMEKCL [Phage-48],2.45
22,YCDGHAPEYMMKCL [Phage-61],2.39
23,YCAGHLPQYMAKCL [Phage-55],2.41
24,YCEGHAPEYIGKCL [Phage-44],2.1
25,YCEGHSPEYMSKCL [Phage-89],2.31
26,YCEGHLPEYLAKCL [Phage-35],2.34
27,YCDGHLPEYMNKCL [Phage-52],2.43
28,YCEGHLPEYLGKCL [Phage-33],1.23

row,Binder,Anti-CD28 Fab signal
1,YCEGHLPEYMAKCL [Phage-57],2.41
2,YCEGHAPEYIAKCL [Phage-29],2.15
3,YCMGHAPEYMAKCL [Phage-68],2.38
4,YCDGHLPEYMEKCL [Phage-50],2.44
5,YCEGHLPLYMWKCL [Phage-96],2.3
6,YCDGHLPQYMEKCL [Phage-47],2.47
7,YCDGHLPEYMSKCM [Phage-66],2.38
8,YCEGHAAEYMTKCL [Phage-143],2.22
9,YCEGHLPEYIWKCL [Phage-43],2.32
10,YCEGHLPEYMWKCL [Phage-62],2.39
11,YCDGHSAEHMAKCL [Phage-54],2.41
12,YCEGHAPEYMAKCL [Phage-46],2.47
13,YCEGHLPEYREKCL [Phage-34],1.96
14,YCEGHLPEYIQKCL [Phage-42],1.9
15,YCEGHAAEYMAKCL [Phage-63],2.38
16,YCEGHLPEYIEKCL [Phage-28],2.06
17,YCEGHLPEYRNKCL [Phage-40],2.38
18,YCDGHLPIYMAKCL [Phage-100],2.3
19,YCEGHLPQYMWKCL [Phage-51],2.44
20,YCEGHLPEYLEKCV [Phage-41],2.11
21,YCEGHSQEYLWKCL [Phage-36],2.36
22,HCSGHHWLQVWKCF [Phage-38],2.31
23,YCWSHSPPFIKKCY [Phage-39],2.06
24,YCEGHSPEYILKCL [Phage-25],1.75
25,YCDGHSPEYILKCL [Phage-93],2.31
26,YCEGHRPEYILKCL [Phage-26],1.27
27,YCEGHSSEYIQKCL [Phage-37],2.25

# Molecular target: Anti-CD28 Fab (SEQ ID NOs: 202, 203)
# Assay: phage binding ELISA on captured Fab; competitor CD28 antigen;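 on Anti-CD28 Fab signal in the presence of CD28: wells pretreated with CD28 antigen in blocking buffer or buffer only, then clonal phage supernatants added briefly without washing, bound phage detected via horseradish-conjugated anti-M13 antibody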
# Description: as §1
row,Binder,Anti-CD28 Fab signal in the presence of CD28
1,YCEGHSQENIWKCL [Phage-32],0.07
2,YCAGHMPEYMAKCL [Phage-65],0.11
3,YCEGHEGIYFWKCL [Phage-27],0.06
4,YCDGHLPEYMAKCL [Phage-69],0.13
5,YCAGHLPQYMSKCL [Phage-72],0.11
6,YCDGHLPEYQEKCL [Phage-71],0.1
7,YCDGHSPEYMWKCL [Phage-49],0.09
8,YCDGHLPQYMAQCL [Phage-59],0.2
9,YCEGHSPQYMWKCL [Phage-142],0.12
10,YCEGHAPEYIRKCL [Phage-30],0.08
11,YCEGHLPEYMFKCL [Phage-58],0.12
12,YCDGHLDEYMAKCL [Phage-94],0.08
13,YCEGHLPQYMQKCL [Phage-60],0.12
14,YCDGHSPIYMWKCL [Phage-45],0.09
15,YCEGHLPQYMKKCL [Phage-144],0.1
16,YCEGHAPEYMLKCL [Phage-146],0.07
17,YCEGHAPEYIWKCL [Phage-31],0.07
18,YCAGHLPEYMDKCL [Phage-53],0.12
19,YCDGHLPEYLAKCL [Phage-64],0.11
20,YCDGHLPIYMSQCL [Phage-73],0.12
21,YCAGHAPEYMEKCL [Phage-48],0.09
22,YCDGHAPEYMMKCL [Phage-61],0.09
23,YCAGHLPQYMAKCL [Phage-55],0.17
24,YCEGHAPEYIGKCL [Phage-44],0.07
25,YCEGHSPEYMSKCL [Phage-89],0.07
26,YCEGHLPEYLAKCL [Phage-35],0.1
27,YCDGHLPEYMNKCL [Phage-52],0.13
28,YCEGHLPEYLGKCL [Phage-33],0.08

row,Binder,Anti-CD28 Fab signal in the presence of CD28
1,YCEGHLPEYMAKCL [Phage-57],0.14
2,YCEGHAPEYIAKCL [Phage-29],0.09
3,YCMGHAPEYMAKCL [Phage-68],0.09
4,YCDGHLPEYMEKCL [Phage-50],0.1
5,YCEGHLPLYMWKCL [Phage-96],0.07
6,YCDGHLPQYMEKCL [Phage-47],0.11
7,YCDGHLPEYMSKCM [Phage-66],0.14
8,YCEGHAAEYMTKCL [Phage-143],0.08
9,YCEGHLPEYIWKCL [Phage-43],0.09
10,YCEGHLPEYMWKCL [Phage-62],0.08
11,YCDGHSAEHMAKCL [Phage-54],0.08
12,YCEGHAPEYMAKCL [Phage-46],0.08
13,YCEGHLPEYREKCL [Phage-34],0.07
14,YCEGHLPEYIQKCL [Phage-42],0.08
15,YCEGHAAEYMAKCL [Phage-63],0.08
16,YCEGHLPEYIEKCL [Phage-28],0.08
17,YCEGHLPEYRNKCL [Phage-40],0.17
18,YCDGHLPIYMAKCL [Phage-100],0.14
19,YCEGHLPQYMWKCL [Phage-51],0.17
20,YCEGHLPEYLEKCV [Phage-41],0.06
21,YCEGHSQEYLWKCL [Phage-36],0.07
22,HCSGHHWLQVWKCF [Phage-38],0.07
23,YCWSHSPPFIKKCY [Phage-39],0.06
24,YCEGHSPEYILKCL [Phage-25],0.06
25,YCDGHSPEYILKCL [Phage-93],0.09
26,YCEGHRPEYILKCL [Phage-26],0.06
27,YCEGHSSEYIQKCL [Phage-37],0.1
